# Several values for one entry are separate records, joined by “and”; a condition that tells them apart may be missing. Equal entries are not always repeated.
# T1: C4.4a (Homo sapiens, UniProt O95274 31-326)
# T1 sequence (looked up): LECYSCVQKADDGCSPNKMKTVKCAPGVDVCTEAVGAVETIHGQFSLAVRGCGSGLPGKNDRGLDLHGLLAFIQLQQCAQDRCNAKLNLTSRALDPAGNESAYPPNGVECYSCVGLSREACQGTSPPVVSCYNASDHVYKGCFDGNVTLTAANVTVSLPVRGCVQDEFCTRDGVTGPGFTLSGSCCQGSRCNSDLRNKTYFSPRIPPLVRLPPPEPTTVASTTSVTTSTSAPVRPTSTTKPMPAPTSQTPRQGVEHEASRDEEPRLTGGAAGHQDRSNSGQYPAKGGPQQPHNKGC
# B1: Example 280 (antibody, human IgG1, kappa, V domains shown)
# VH: QVELVESGGGLVQPGGSLRLSCAASGFTFSSYGMSWVRQAPGKGLEWVSGISSLGSTTYYADSVKGRFTISRDNSKNTLYLQMNSLRAEDTAVYYCARTGSPGTFMHGDHWGQGTLVTVSS
# VL: DIQMTQSPSSLSASVGDRVTITCRASQDINNYLSWYQQKPGKAPKLLIYGASNLQSGVPSRFSGSGSGTDFTLTISSLQPEDFAVYYCQQYYGRPTTFGQGTKVEIKR
# modifications: linker-toxophore on cysteine S
# B2: Example 306 (antibody, human IgG1, kappa, V domains shown)
# VH: B1 VH
# VL: B1 VL
# modifications: linker-toxophore on lysine NH
# B3: Example 290 (antibody, human IgG1, kappa, V domains shown)
# VH: B1 VH
# VL: B1 VL
# modifications: linker-toxophore on lysine NH
# B4: Example 294 (antibody, human IgG1, kappa, V domains shown)
# VH: B1 VH
# VL: B1 VL
# modifications: linker-toxophore on cysteine S
# B5: Example 289 (antibody, human IgG1, kappa, V domains shown)
# VH: B1 VH
# VL: B1 VL
# modifications: linker-toxophore on cysteine S
# B6: Example 299 (antibody, human IgG1, kappa, V domains shown)
# VH: B1 VH
# VL: B1 VL
# modifications: linker-toxophore on cysteine S
# B7: Example 282 (antibody, human IgG1, kappa, V domains shown)
# VH: B1 VH
# VL: B1 VL
# modifications: linker-toxophore on cysteine S
# B8: Example 288 (antibody, human IgG1, kappa, V domains shown)
# VH: B1 VH
# VL: B1 VL
# modifications: linker-toxophore on cysteine S
# B9: Example 297 (antibody, human IgG1, kappa, V domains shown)
# VH: B1 VH
# VL: B1 VL
# modifications: linker-toxophore on cysteine S
# B10: Example 291 (antibody, human IgG1, kappa, V domains shown)
# VH: B1 VH
# VL: B1 VL
# modifications: linker-toxophore on cysteine S
# B11: Example 325 (antibody, human IgG1, kappa, V domains shown)
# VH: B1 VH
# VL: B1 VL
# modifications: linker-toxophore on cysteine S
# B12: Example 320 (antibody, human IgG1, kappa, V domains shown)
# VH: B1 VH
# VL: B1 VL
# modifications: linker-toxophore on cysteine S
# B13: Example 286 (antibody, human IgG1, kappa, V domains shown)
# VH: B1 VH
# VL: B1 VL
# modifications: linker-toxophore on cysteine S
# B14: Example 301 (antibody, human IgG1, kappa, V domains shown)
# VH: B1 VH
# VL: B1 VL
# modifications: linker-toxophore on cysteine S
# B15: Example 327 (antibody, human IgG1, kappa, V domains shown)
# VH: B1 VH
# VL: B1 VL
# modifications: linker-toxophore on cysteine S
# B16: Example 324 (antibody, human IgG1, kappa, V domains shown)
# VH: B1 VH
# VL: B1 VL
# modifications: linker-toxophore on cysteine S
# B17: Example 284 (antibody, human IgG1, kappa, V domains shown)
# VH: B1 VH
# VL: B1 VL
# modifications: linker-toxophore on cysteine S
# B18: Example 321 (antibody, human IgG1, kappa, V domains shown)
# VH: B1 VH
# VL: B1 VL
# modifications: linker-toxophore on cysteine S
# B19: Example 287 (antibody, human IgG1, kappa, V domains shown)
# VH: B1 VH
# VL: B1 VL
# modifications: linker-toxophore on cysteine S
# B20: Example 305 (antibody, human IgG1, kappa, V domains shown)
# VH: B1 VH
# VL: B1 VL
# modifications: linker-toxophore on cysteine S
# B21: Example 281 (antibody, human IgG1, kappa, V domains shown)
# VH: B1 VH
# VL: B1 VL
# modifications: linker-toxophore on cysteine S
# B22: Example 283 (antibody, human IgG1, kappa, V domains shown)
# VH: B1 VH
# VL: B1 VL
# modifications: linker-toxophore on cysteine S
# B23: Example 304 (antibody, human IgG1, kappa, V domains shown)
# VH: B1 VH
# VL: B1 VL
# modifications: linker-toxophore on cysteine S
# B24: Example 296 (antibody, human IgG1, kappa, V domains shown)
# VH: B1 VH
# VL: B1 VL
# modifications: linker-toxophore on cysteine S
# B25: Example 323 (antibody, human IgG1, kappa, V domains shown)
# VH: B1 VH
# VL: B1 VL
# modifications: linker-toxophore on lysine NH
# B26: Example 303 (antibody, human IgG1, kappa, V domains shown)
# VH: B1 VH
# VL: B1 VL
# modifications: linker-toxophore on lysine NH
# B27: Example 322 (antibody, human IgG1, kappa, V domains shown)
# VH: B1 VH
# VL: B1 VL
# modifications: linker-toxophore on lysine NH
# B28: Example 315 (antibody, human IgG1, kappa, V domains shown)
# VH: B1 VH
# VL: B1 VL
# modifications: linker-toxophore on cysteine S
# B29: Example 326 (antibody, human IgG1, kappa, V domains shown)
# VH: B1 VH
# VL: B1 VL
# modifications: linker-toxophore on lysine NH
# B30: Example 295 (antibody, human IgG1, kappa, V domains shown)
# VH: B1 VH
# VL: B1 VL
# modifications: linker-toxophore on cysteine S
# B31: Example 292 (antibody, human IgG1, kappa, V domains shown)
# VH: B1 VH
# VL: B1 VL
# modifications: linker-toxophore on cysteine S
# B32: Example 302 (antibody, human IgG1, kappa, V domains shown)
# VH: B1 VH
# VL: B1 VL
# modifications: linker-toxophore on cysteine S
# B33: Example 293 (antibody, human IgG1, kappa, V domains shown)
# VH: B1 VH
# VL: B1 VL
# modifications: linker-toxophore on cysteine S
# B34: Example 285 (antibody, human IgG1, kappa, V domains shown)
# VH: B1 VH
# VL: B1 VL
# modifications: linker-toxophore on cysteine S
# B35: Example 298 (antibody, human IgG1, kappa, V domains shown)
# VH: B1 VH
# VL: B1 VL
# modifications: linker-toxophore on cysteine S
# B36: Example 300 (antibody, human IgG1, kappa, V domains shown)
# VH: B1 VH
# VL: B1 VL
# modifications: linker-toxophore on cysteine S
# B37: Example 211 (antibody, human IgG1, lambda, V domains shown)
# VH: EVQLLESGGGLVQPGGSLRLSCAASGFTFSSAWMSWVRQAPGKGLEWVSYISSSGSTIYYADSVKGRFTISRDNSKNTLYLQMNSLRAEDTAVYYCAREGLWAFDYWGQGTLVTVSS
# VL: QSVLTQPPSVSGAPGQRVTISCTGSSSNIGAGYVVHWYQQLPGTAPKLLIYDNNKRPSGVPDRFSGSKSGTSASLAISGLRSEDEADYYCAAYDDSLSGPVFGGGTKLTVLG
# modifications: linker-toxophore on cysteine S
# B38: Example 214 (antibody, human IgG1, lambda, V domains shown)
# VH: B37 VH
# VL: B37 VL
# modifications: linker-toxophore on cysteine S
# How the values were obtained:
# Assay in all cases: cell-based or functional assay
# [1] = molecular target: T2, Carboanhydrase IX (Homo sapiens, UniProt Q16790 38-459)
# [2] = molecular target: T2, Carboanhydrase IX; remark: listed apart in the source
# [3] = molecular target: T1, C4.4a
Binder,MIAPaCa 2/CA9+ IC50 [1],EC50 (nM) HT29 [2],EC50 (nM) SNU-5 [2],IC50 (nM) A549: C4.4a [3]
B1,0.4 nM,2.9 nM,–,–
B2,21 nM,66 nM,33 nM,–
B3,1.9 nM,115 nM,84 nM,–
B4,1 nM,13.6 nM,21.4 nM,–
B5,78 nM,49 nM,–,–
B6,0.8 nM,4.1 nM,–,–
B7,0.05 nM,< 0.01 nM,–,–
B8,12 nM,39 nM,–,–
B9,0.02 nM,< 0.01 nM,–,–
B10,22 nM,27 nM,–,–
B11,137 nM,–,–,–
B12,19 nM,–,–,–
B13,0.8 nM,0.03 nM,–,–
B14,22 nM,> 30 nM,–,–
B15,19 nM,–,–,–
B16,11 nM,–,–,–
B17,0.9 nM,0.7 nM and 1.6 nM,3 nM and 2.2 nM,–
B18,220 nM,–,–,–
B19,69 nM,> 30 nM,–,–

Binder,MIAPaCa 2/CA9+ IC50 [1],EC50 (nM) HT29 [2],EC50 (nM) SNU-5 [2],IC50 (nM) A549: C4.4a [3]
B20,2.6 nM,0.9 nM,2.2 nM,–
B21,1.2 nM,1.7 nM,–,–
B22,0.4 nM,0.3 nM,–,–
B23,0.019 nM,0.05 nM,0.6 nM,–
B24,0.6 nM,0.4 nM,–,–
B25,238 nM,–,–,–
B26,0.009 nM,2.2 nM,3.3 nM,–
B27,172 nM,–,–,–
B28,3.2 nM,–,–,–
B29,2 nM,–,–,–
B30,25 nM,> 100 nM,63 nM,–
B31,35 nM,223 nM,–,–
B32,3.9 nM,> 30 nM,–,–
B33,< 0.1 nM,0.1 nM,–,–
B34,0.6 nM,0.5 nM,–,–
B35,1.1 nM,2.5 nM,7.8 nM,–
B36,0.3 nM,5 nM,–,–
B37,–,–,–,0.076 nM
B38,–,–,–,0.04 nM
